Source: the supplement of paper PMC12042874
± gives the uncertainty stated by the source.

Test: amyloid nucleation score (Sup35N fusion, yeast selection) (log enrichment); library NNK2; higher = more nucleation; inactive = no reads after selection
Procedure, shortened: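 Psi-negative yeast expressed Sup35N fused to peptides of 20 random codons. They were induced 24 hours with 100 μM copper sulfate, grown 7 days at 30°C without adenine and uracil, and their plasmid inserts from input and output were Illumina-sequenced. The nucleation score is the DiMSum log enrichment of output over input reads, centred on the mode score of non-aggregating sequences. Sequences with under 100 input reads were excluded.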

QSYWSWLKKVSRFVYPHTRS
amyloid nucleation score: 0.291 ± 0.26

CRVNRGRGNSTTLYMMDFGY
amyloid nucleation score: 2.7 ± 0.088

WFSVVILLNSTMEYYQYLV
amyloid nucleation score: -0.128 ± 0.45

VTEIFMLAL
amyloid nucleation score: -0.129 ± 1.1

YFLGAFTYVFCACHSFCRYW
amyloid nucleation score: 1.86 ± 0.15

PFTSYML
amyloid nucleation score: 5.63 ± 0.065

YYRYPYTLKCPGGLQERQHL
amyloid nucleation score: -0.028 ± 0.76

TIHSSPTVGLGNIWFVTNSH
amyloid nucleation score: 6.87 ± 0.052

GNWSVDGWQYCNRTHKCSYH
amyloid nucleation score: 2.41 ± 0.059

VTGNTSRLISRPGANPNCMG
amyloid nucleation score: -0.03 ± 0.56

LRKHFWLGCEGAWLVFG
amyloid nucleation score: 4.81 ± 0.08

PWNMACFS
amyloid nucleation score: inactive

FILQELCWPVLSSIHFGNVA
amyloid nucleation score: -1.15 ± 0.36

LYTSSATHLIRP
amyloid nucleation score: inactive

RIQDLMVLTEGYRRDVIGPG
amyloid nucleation score: 0.533 ± 0.56

WSLYHASERENIRPALTSIW
amyloid nucleation score: 0.325 ± 0.21

LSVSHMCEADLQYRTLFLSK
amyloid nucleation score: -0.606 ± 0.37

GISLGDNIRFYLDCTAAPGA
amyloid nucleation score: -0.648 ± 0.42

AVLFNDTWGGFAPNWYLLLS
amyloid nucleation score: 0.474 ± 0.38

LCQNKTMTIGRFKIGHKWYP
amyloid nucleation score: 0.004 ± 1.1

TNLFVSLPQPSVVKSSGSLQ
amyloid nucleation score: 0.212 ± 0.31

VWQVERVTIFLGFVKNLGLV
amyloid nucleation score: 2.68 ± 0.084

SLGTFVRHTEWSSKNEAFPV
amyloid nucleation score: inactive

FNSRL
amyloid nucleation score: -0.208 ± 1

NWLLRG
amyloid nucleation score: 1.26 ± 0.37

ATFVIY
amyloid nucleation score: -0.603 ± 1

LTSCGLVWCSIRRPGMKALV
amyloid nucleation score: -0.077 ± 0.76

GESEVLSRRRQFFGRLWVCM
amyloid nucleation score: inactive

ALTVKSQLCG
amyloid nucleation score: -1.71 ± 1.1

LCFMF
amyloid nucleation score: 0.4 ± 0.51

APHSLVVGCTVVLF
amyloid nucleation score: 7.589 ± 0.037

DSIFFYTGMQTDYHAHMSPC
amyloid nucleation score: inactive

RFRRLSIIVILYTASRDLWR
amyloid nucleation score: 0.289 ± 0.41

LVSKSERER
amyloid nucleation score: 5.451 ± 0.053

PSDMHSNNLA
amyloid nucleation score: -0.774 ± 0.76

EHRSVRDLKRMQCEIYSRGV
amyloid nucleation score: 0.191 ± 0.8

LYPLCYGL
amyloid nucleation score: -0.829 ± 1.1

VEFILKVGYAFTATCPCGFW
amyloid nucleation score: -0.711 ± 0.79

DQESRNSVFSGKGGRRDVSS
amyloid nucleation score: -0.134 ± 0.37

VYVWDELFVNKKANWTDL
amyloid nucleation score: 1.29 ± 0.47

VQCVMSESMDELYSLVLRCP
amyloid nucleation score: 0.998 ± 0.28

GTTCDIEDVPCMLVVDTLLV
amyloid nucleation score: 1.42 ± 0.16

KISSMAVI
amyloid nucleation score: 0.069 ± 0.48

CLVWLDI
amyloid nucleation score: -1.11 ± 0.55

QMQPTGLRQNLSSPWPFVGE
amyloid nucleation score: 0.993 ± 0.29

ERSNFWPRVQTPCESVA
amyloid nucleation score: 0.016 ± 1.1

STSICYFLYRLWSHISLNSL
amyloid nucleation score: inactive

NLHVHL
amyloid nucleation score: 3.64 ± 0.056

PGYGPLTMGGS
amyloid nucleation score: 1.35 ± 0.24

LFLQVGTAVGIRYINGAYLV
amyloid nucleation score: -0.959 ± 0.38

SYWKTSKCMTKLLGCNM
amyloid nucleation score: -0.243 ± 0.45

TAFVSHL
amyloid nucleation score: -0.288 ± 1.1

VRNFCFDYSVWYENGLTWKR
amyloid nucleation score: 0.527 ± 0.66

KSICARVFTIQMRNVSVQSS
amyloid nucleation score: 0.158 ± 0.43

FKNRGLLICFEEEHLCAKRR
amyloid nucleation score: -1.05 ± 0.78

DKSIR
amyloid nucleation score: 0.239 ± 0.33

TMILKWESRCERGPGEVRLV
amyloid nucleation score: 6.204 ± 0.052

FKSVLWCKFLTDIG
amyloid nucleation score: 6.04 ± 0.064

CGNLSCPVGVCGIFRRPSTG
amyloid nucleation score: inactive

LYVCPSASWESCPGGIKRMG
amyloid nucleation score: inactive

LSYRHNGPHPGGYNCTGSRV
amyloid nucleation score: inactive

TFRDYQYMYFRSRNII
amyloid nucleation score: 0.034 ± 1.1

SARHDSRVYNWGLFMKYDVN
amyloid nucleation score: 4.12 ± 0.084

QWVVTRDFVE
amyloid nucleation score: -0.041 ± 0.63

YLSIFRVLSIFCVWLHTVGN
amyloid nucleation score: inactive

GSKTRFF
amyloid nucleation score: inactive

EWRGMLLVSTRLVKDIVR
amyloid nucleation score: -0.553 ± 0.35

DMSFQDIIMP
amyloid nucleation score: -0.931 ± 0.54

CLCPTNYDSSRIYLVRC
amyloid nucleation score: inactive

PYTSS
amyloid nucleation score: -0.107 ± 0.41

LMSCRILRSAKRGHSNVKRF
amyloid nucleation score: 0.254 ± 0.46

YRDECWLSYS
amyloid nucleation score: -0.347 ± 0.56

RDPSTELMISRLARTESCGT
amyloid nucleation score: 4.94 ± 0.065

RVPFWFT
amyloid nucleation score: -1.2 ± 0.49

NHCPHTKWGTTYCAHGCIHA
amyloid nucleation score: 0.639 ± 0.46

FYINVRLYARVACRCMRVPC
amyloid nucleation score: 5.4 ± 0.076

KLSWRIRA
amyloid nucleation score: 0.403 ± 0.42

ERVDVI
amyloid nucleation score: -0.364 ± 0.32

YVRMMTNSTLLGRGLKYLCV
amyloid nucleation score: 0.429 ± 0.62

YFMLPLYMMLLGYFYKTICS
amyloid nucleation score: 6.933 ± 0.067

CGWTDFMMYTWTEIMQIQLR
amyloid nucleation score: -1.03 ± 0.76

SGLEEYLSHLMLQVRFQESR
amyloid nucleation score: 0.432 ± 0.57

FVTFWDYWSSRGDPMMSYRV
amyloid nucleation score: 0.13 ± 0.49

YIIRRYWARPSYVNSFM
amyloid nucleation score: -0.31 ± 0.74

ASLLGQKSAVGILRIHSKLY
amyloid nucleation score: -0.573 ± 1.1

CWRVDSFVLGNHNGIGVCFV
amyloid nucleation score: -0.918 ± 0.41

YFRISTWRFRTRHLGPCERG
amyloid nucleation score: 5.708 ± 0.054

MMDRV
amyloid nucleation score: -0.092 ± 0.65

SPLSSKDCYGKTERSVWHVM
amyloid nucleation score: 0.588 ± 0.4

FCSDGK
amyloid nucleation score: 0.186 ± 0.3

CVNITYI
amyloid nucleation score: 4.625 ± 0.031

KLGYHLSMIFVFRNVVCPYI
amyloid nucleation score: -0.711 ± 1.1

HNYMLVILHRDSPNLNLGHS
amyloid nucleation score: 3.94 ± 0.12

YFVRFEDIGWTVSVHTGDSG
amyloid nucleation score: -0.063 ± 0.45

RSTNTRIIKLTKCAGPNRDE
amyloid nucleation score: 1.14 ± 0.17

YISIPDVCLLHSIPQSRASI
amyloid nucleation score: inactive

RITWFVIFIHCCKGLIR
amyloid nucleation score: -0.369 ± 0.54

MYIMLFRFVRIVDLLDCLGN
amyloid nucleation score: 0.207 ± 0.43

EFYFG
amyloid nucleation score: 0.599 ± 0.8

YSGRREILYHNRVSPHCMNL
amyloid nucleation score: 2.64 ± 0.12

HRNNQMQCVFAFLW
amyloid nucleation score: 7.199 ± 0.053

RLCRSAPG
amyloid nucleation score: 1.3 ± 0.44

FSPIYRHGHKCML
amyloid nucleation score: -0.672 ± 0.54

DTFINWIWRGYGKWMCSGRR
amyloid nucleation score: -0.135 ± 0.39

GIIDV
amyloid nucleation score: -0.441 ± 1.1

LRVYKTNTRQDLKLDTIMVG
amyloid nucleation score: -1.14 ± 0.34

DNVKVWSGFTRY
amyloid nucleation score: -0.148 ± 0.49

KSCYIAV
amyloid nucleation score: -0.066 ± 0.45

GSVRTDVLSPRFGGTGHLVN
amyloid nucleation score: -0.116 ± 0.54

YYNIQLSFVDMVLMYYDESM
amyloid nucleation score: 4.443 ± 0.04

GPYFVNYPLKTNSIVLWELA
amyloid nucleation score: 0.356 ± 0.8

CDMSHGTFFTIFCRLTNA
amyloid nucleation score: 4.81 ± 0.11

SLSDELAERNSRCTRLTPWM
amyloid nucleation score: 1.61 ± 0.23

STSIAVANHWVSYFFVSSGL
amyloid nucleation score: 8.998 ± 0.038

RDALCVHWVAYIGNKHGWVA
amyloid nucleation score: 0.965 ± 0.17

DNNTIWD
amyloid nucleation score: 0.94 ± 0.23

PSIWSLDGSYFCSADENCKR
amyloid nucleation score: inactive

VISASSVAP
amyloid nucleation score: 0.557 ± 0.31

LGIKRNQI
amyloid nucleation score: -0.812 ± 0.45

FNWDNFSKLVAKNNLVISKL
amyloid nucleation score: inactive

CLQCQLIRRGLTKMNMGFAS
amyloid nucleation score: -0.023 ± 0.45

LIVGAIASLHHTLQVNGSPN
amyloid nucleation score: 4.59 ± 0.11

LTNNHYIKPFRSRIRVMVMY
amyloid nucleation score: 4.79 ± 0.069

GQTLTRRKVKGRQRELTSGQ
amyloid nucleation score: 0.967 ± 0.36

FREGSSIGFVLPTENVLMT
amyloid nucleation score: 0.256 ± 1

RYVTKGLCLL
amyloid nucleation score: 1.16 ± 0.47

YLGICTMFDTGIGEIFTCCT
amyloid nucleation score: 5.78 ± 0.069

NSGARSTSLVNVWVLYLLDR
amyloid nucleation score: 6.414 ± 0.055
